Reference: article PMC3686692 (PLoS ONE, 2013)

What was measured:
[1] = Population pharmacokinetic model of peginesatide plasma concentrations (NONMEM); type: in vivo, human; details: for Subcutaneous bioavailability (F1): fraction
Excerpt: (§1) These studies were: AFX01-02 (NCT00109291) [data on file], AFX01-03 (NCT00228449), AFX01-04 (NCT00228436) and AFX01-07 (NCT00434330) [data on file]). Data were also utilized from one Phase 3 study, AFX01-14 (NCT00597584) conducted in hemodialysis patients. All plasma concentration-time data obtained in Phase 2 (with frequent PK and PD sampling scheme) [7, 8, AFX01-2, AFX01-07] and Phase 3 studies, with sparse PK and frequent PD sampling schemes, were used for the development of the PK model.
The lower and upper limits of quantification for the assay were 25 and 600 ng/mL, respectively.
(§2) The concentration of hemoglobin was measured using a standard laboratory method in a Clinical Laboratory Improvement Amendments certified central laboratory. Baseline weight was used to calculate the dose (in mg/kg). The first order conditional estimation (FOCE) and first-order (FO) method as implemented in NONMEM were used for PK and PK-PD modeling. Model selection criteria included a statistically significant reduction of the objective function value (OFV) (α = 0.05) for nested models, Akaike information criteria for non-nested models, reductions in both residual (σ^2) and inter-subject (ω^2) variability, improvement in the precision of parameter estimates as measured by the percent standard error of the mean (%SEM), and visual examination of standard goodness-of-fit plots.
Several different PK models were evaluated as base structural PK models. These included: 1-compartment and 2-compartment with first-order absorption and elimination; 1-compartment and 2-compartment with first-order absorption and Michaelis-Menton (MM) elimination; and a combination of zero- and first-order absorption with linear and MM elimination. Life-span, negative-feedback and precursor-dependent Lifespan Indirect Response (LIDR) models were evaluated as potential base PK-PD models.
In order to avoid possible multicollinearity issues, GAM analyses were performed for PK and PD parameters using different combinations of covariates that were deemed to be highly correlated (r>0.6) along with the remaining covariates. The potential covariates selected following GAM analysis were then tested using a standard approach of stepwise forward addition (P<0.05) followed by stepwise backward elimination procedure (P<0.005). […] The relationship between continuous covariates and PK and PD parameters were evaluated using linear, exponential and power functions as described in Equations 9, 10, and 11 with the covariates centered or scaled at their median values: [drawing 11] [drawing 12] [drawing 13]
The adequacy of the final PK and PK-PD models was evaluated using a simulation-based prediction-corrected (pc) visual predictive check (VPC) method (1000 replicates). Due to the dose adjustment algorithm used in these trials, the pcVPC was utilized. This technique provides an enhanced ability to diagnose possible model misspecification by removing the variability introduced in an ordinary VPC when binning across a potentially large variability in dose or other influential covariates. The percent of observations outside the 90% prediction interval were also calculated to evaluate predictive ability of the model. A non-parametric bootstrap procedure (1000 bootstrap runs) was also employed to evaluate the precision of the parameter estimates and the robustness of the final PK and PK-PD models.
Inter-individual variability (IIV) was estimated for volume of the central compartment (V2), the absorption rate constant (Ka) and the concentration required to reach 50% of maximum rate of elimination (KM) using exponential models, assuming a log-normal distribution for each parameter.

hemoglobin [2] = experiment: Population PK-PD model (modified precursor-dependent lifespan indirect response) of hemoglobin levels; type: in vivo, human; details: final PK-PD model
Excerpt: as §1
as §2, with “plots. […]” for “plots.”
In the study, baseline erythropoietin levels were not measured in all patients. […]
A generalized additive modeling (GAM) approach along with graphical analysis (plots of the inter-subject error terms for each parameter [ηi] versus covariates) was used for initial covariate screening and to determine the functional form of the relationship between the covariates and PK and PD parameters of peginesatide. […] The relationship between continuous covariates and PK and PD parameters were evaluated using linear, exponential and power functions as described in Equations 9, 10, and 11 with the covariates centered or scaled at their median values: [drawing 11] […]
The adequacy of the final PK and PK-PD models was evaluated using a simulation-based prediction-corrected (pc) visual predictive check (VPC) method (1000 replicates). […]

[3] = dialysis patients, cited from earlier work
[4] = cited from earlier work
hemoglobin [5] = details: PK-PD model estimates from different populations and structural models; cited from earlier work
Excerpt: The estimates of red blood cell life span (67.5 days) obtained from this analysis are consistent with previously reported values in the literature (60 to 65 days in dialysis patients), [17].

[6] = final population PK model, 672 CKD patients on/not on dialysis, IV or SC, final estimate (% SEM)
[7] = final population PK model, SC, final estimate (% SEM)
[8] = final population PK model, median bootstrap estimate, 870/1000 converged runs
[9] = median bootstrap estimate, 935/1000 converged runs

Substance: peginesatide
- effect of concomitant medications on PK or PD parameters ([1]; concomitant medications taken by >10% of the patient population during 80% of the trial period): did not alter
- total volume of distribution ([1]; estimated population value, IV and SC administration): 0.043 L/kg
- Central volume of distribution (V2) [1, 6]: 35.6 (2.7) mL/kg
- Concentration needed to reach 50% of Vmax (KM) [1, 6]: 1880 (14.6) ng/mL
- Maximum rate of elimination (Vmax) [1, 6]: 45.3 (10.0) ng/mL/hr
- Absorption rate constant (Ka) [1, 7]: 0.00865 (15.6) 1/hr
- Subcutaneous bioavailability (F1) [1, 7]: 0.498 (4.4)
- Peripheral volume of distribution (V3) ([1]; final population PK model, final estimate (% SEM)): 7.44 (10.3) mL/kg
- Subcutaneous bioavailability (F1) [1, 8]: 0.499
- Absorption rate constant (Ka) [1, 8]: 0.00869 h⁻¹
- Age slope for V2 [1, 8]: –0.125 L/yr
- BMI power for V2 [1, 8]: –0.485
- Central volume of distribution (V2) [1, 8]: 35.6 mL/kg
- Concentration needed to reach 50% of Vmax (KM) [1, 8]: 1860 ng/mL
- ETHN shift for Ka [1, 8]: 0.00815 (1/hr)
- Maximum rate of elimination (Vmax) [1, 8]: 44.7 ng/mL/h
- Peripheral volume of distribution (V3) [1, 8]: 7.42 mL/kg
- TBILI slope for V2 [1, 8]: 0.482 L/(g/L)
- bioavailability after SC administration ([1]; model estimated, final population PK model): approximately 50%
- linearity of pharmacokinetics ([1]; population PK model, over the evaluated dose range): non-linear pharmacokinetics
- Drug concentration required for 50% of maximum response (EC50) (hemoglobin [2]; 517 hemodialysis patients, IV or SC, plasma concentration, final estimate (% SEM)): 401 (2.0) ng/mL
- Drug concentration required for 50% of maximum response (EC50) (hemoglobin [2]; [9]): 417 ng/mL
- Maximum pharmacologic effect (Emax) (hemoglobin [2]; [9]): 0.564
- mean volume of distribution ([3]; IV administration, mean ± standard deviation): 0.0349 ± 0.0138 L/kg
- accumulation ([3]; IV or SC administration every 4 weeks): No accumulation
- bioavailability ([3]; SC administration): approximately 46%
- time at which Cmax is reached ([3]; SC administration): approximately 48 hours
- volume of distribution ([4]; healthy volunteers): 0.035 L/kg
- half-life (T1/2) ([4]; human, in vivo, sc): 53.0 ± 17.7 h

Substance: methoxy polyethylene glycol-epoetin beta [Micera]
- EC50 (hemoglobin [5]): 0.898 ng/mL
- Emax (hemoglobin [5]): 0.425

Substance: darbepoetin alfa
- EC50 (hemoglobin [5]): 0.41 ng/mL
- Emax (hemoglobin [5]): 0.637
